Measurements published in the supplement of paper PMC10567573.

B1: ALDH8A1 (parent)
chain: RVAKKLQSGLVWTNCWLIRELNLP
B2: DULLARD (parent)
chain: LVVFTASMEIYGSAVADKLDNSRS

Variants of: B1
Experiment: protein stability index of a GFP-peptide fusion (GPS, HEK-293T) (PSI 1-6); higher = more stable
Settings: c terminus: a fixed tail appended
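Further: lentivirally expressed fusions sorted by FACS into six bins by GFP to DsRed ratio, PSI derived from sequencing read proportions per bin multiplied by bin number.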

Protein stability index of substitutions, site by site:
R1: H 2.09 | D 2.04 | P 2.46 | C 1.74 | F 3.15 | V 2.44 | K 3.98 | L 5 | T 3.94 | N 3.5
V2: K 1.36 | H 4.07 | I 3.68 | W 2.54 | P 2.08 | S 3.15 | E 1.9 | D 1.92 | N 2.49 | T 2.33
K5: M 3.19 | Q 1.34 | H 3.18 | C 3.67 | T 2.88 | V 4.01 | Y 3.1 | L 3.02 | I 2.13
A3: P 3.51 | W 2.5 | R 2.03 | M 3.44 | Y 1.16 | I 3.48 | E 3.61
K4: H 2.45 | F 2.22 | L 1.98 | C 1.05 | M 2.82 | N 4.07 | W 3.14 | R 2.29

Variants of: B2
Experiment: as above
Settings: c terminus: a fixed tail appended

Protein stability index: each site, then its substitutions
M8: C 1.14 | I 4.57 | S 1.02 | P 1.18 | E 1.83 | W 1.05 | V 2.73 | Y 2.64 | L 2.01 | N 1.65 | G 1.31 | T 1.82 | A 1.59 | F 3.03 | R 1.9 | D 2.65 | H 2.98 | K 1.96 | Q 1.49
S24: A 2.29 | H 2.46 | I 1.3 | R 1.88 | E 2.29 | T 2.71 | Q 2.15 | L 2.2 | C 2.69
V3: N 2.75 | R 2.23 | W 1.56 | M 3.28 | P 3.51 | Y 2.68 | H 2.21 | D 3.23 | F 2.15 | Q 2.62 | C 2.03 | T 1.99 | G 2.75 | K 2 | S 1.86 | E 2.33
S22: A 2.39 | I 2.37 | E 4.27 | D 2.71 | T 1.89 | M 2.31 | G 2.5 | P 2.62 | R 3.98 | Y 2.24 | K 2.58
I10: C 1.75 | A 1.05 | S 1.05 | P 2.16 | M 1.28 | T 1.87 | E 1.5 | K 2.05 | L 1.34 | H 1.44 | V 2.24 | N 1.98 | F 2.94 | Y 1.92 | Q 1.62
G12: L 2.98 | Q 1.85 | E 1.45 | F 2.79 | W 2.26 | V 3.44 | T 2.86 | P 2.37
D20: P 2.48 | K 1.88 | L 2.95 | N 1.6 | V 2.63 | S 3.14 | A 3.32 | T 2.02 | C 1.69 | H 1.99 | E 1.97 | Q 3.44 | Y 2.51
A16: N 1.46 | D 3.11 | R 3.75 | F 4.14 | I 2.93 | H 3.11 | Q 2.02 | K 2.89 | E 2.34
V2: P 2.93 | M 2.25 | R 2.25 | N 2.5 | W 3.1 | A 2.1 | K 1.78 | H 2.16 | L 1.99 | G 2.52 | Q 1.96 | D 3.02 | E 2.46 | T 1.72 | I 2.18 | S 2.35 | C 1.61
V15: C 1.95 | L 1.48 | Y 1.87 | D 1.11 | S 2.48 | N 1.87 | T 1.66 | K 2.26 | E 2.32 | R 3.02 | I 3.03 | A 2 | H 1.82 | G 2.14
E9: L 3.73 | P 3.01 | N 1.74 | R 2.71 | F 2.73 | W 2.46 | D 2.27 | A 2.72 | V 3 | C 2.96
Y11: K 1.51 | M 1.56 | H 1.58 | D 1.38 | E 2.44 | N 3.21 | R 1.88 | C 2.48 | A 3.03 | I 2.51 | G 1.97 | S 2.13 | Q 2.07
T5: H 1.99 | D 2.09 | S 3.15 | N 1.76 | M 3.54 | E 2 | P 1.66 | R 2.6 | A 2.22 | F 2.49 | Q 2.37
N21: A 2.08 | K 3.06 | V 1.5 | R 2.68 | G 1.8 | T 2.67 | P 3
K18: N 2.74 | M 2.11 | L 2.77 | Q 2.49 | V 2.79 | I 4.09 | Y 1.55 | D 2.94 | H 1.88 | G 1.99
A6: D 1.47 | N 1.53 | Q 2.02 | T 2.8 | P 1.43 | H 2.33 | I 4.3 | Y 2.47 | C 2.65 | E 1.54 | R 2.08 | G 1.57 | L 2.11
A14: N 2.84 | C 2.02 | E 1.04 | T 3.78 | Q 1.99 | P 1.73 | D 1.19 | V 1.69 | R 4.28 | S 2.32
L19: W 2.27 | D 1.73 | Q 2.45 | K 1.66 | E 2.17 | S 2.02 | M 2.41 | P 2.23 | R 1.87 | I 1.62 | Y 3.37 | H 1.54 | N 1.23 | F 2.41
D17: H 3 | K 2.26 | R 2.48 | V 1.97 | Y 2.6
F4: D 2.05 | I 3.55 | E 2.27 | N 2.4 | H 2.78 | Q 2.78 | W 3.77 | P 3.61 | G 2.24 | R 2.14 | A 1.61 | K 2.91 | T 1.56 | S 2.34 | Y 2.93
S7: T 2.48 | K 2.07 | F 2.06 | C 3.12 | M 2.8 | H 3.69 | A 1.85 | N 2.14 | V 2.27 | D 1.55 | I 4.7 | G 1.24 | P 1.93
S13: R 2.84 | C 2.05 | D 2.37 | T 2.42 | G 1.68 | P 2.48 | Y 2.58 | Q 1.29 | E 1.36 | I 2.46 | A 2.72
L1: H 1.19 | S 1.94 | Q 2.52 | F 2 | D 2.44 | R 2.49 | T 1.82 | V 3.46 | P 3.74 | N 2.9 | C 1.94 | Y 2.57 | M 2.29 | A 1.73 | K 2.09 | E 2.25
R23: V 2.42 | K 1.71 | S 2.05 | E 2.94 | F 2.67 | C 2.03 | P 2.61 | T 2.68 | H 2.77 | D 1.75 | Q 1.86
